Consider one molecule from PMC8894376 (Nature Communications, 2022).

In the assay the target is Recombinant full-length human α-synuclein (1–140) (human, UniProt P37840 1-140). In words: turbidity of phase separation (absorbance at 350 nm). Conditions: both partners purified.

B1: PrP 23–144 (Y145Stop) (domain or fragment)
chain: KKRPKPGGWNTGGSRYPGQGSPGGNRYPPQGGGGWGQPHGGGWGQPHGGGWGQPHGGGWGQPHGGGWGQGGGTHSQWNKPSKPKTNMKHMAGAAAAGAVVGGLGGYMLGSAMSRPIIHFGSD
On to B1, for which the binding result is listed as “binds”.
